The record followed here is patent US20190144517A1 (SHANGHAI JW INFLINHIX, published 2019).

For the test, the target named is T1, TNF receptors on L929 cells (mouse, UniProt P25118 30-454).
T1 construct: whole, on cells; The result text says 'TNF receptors'; the staining used an anti-TNFR1 antibody; also called cell surface receptors; TNFR1
T1 sequence (looked up): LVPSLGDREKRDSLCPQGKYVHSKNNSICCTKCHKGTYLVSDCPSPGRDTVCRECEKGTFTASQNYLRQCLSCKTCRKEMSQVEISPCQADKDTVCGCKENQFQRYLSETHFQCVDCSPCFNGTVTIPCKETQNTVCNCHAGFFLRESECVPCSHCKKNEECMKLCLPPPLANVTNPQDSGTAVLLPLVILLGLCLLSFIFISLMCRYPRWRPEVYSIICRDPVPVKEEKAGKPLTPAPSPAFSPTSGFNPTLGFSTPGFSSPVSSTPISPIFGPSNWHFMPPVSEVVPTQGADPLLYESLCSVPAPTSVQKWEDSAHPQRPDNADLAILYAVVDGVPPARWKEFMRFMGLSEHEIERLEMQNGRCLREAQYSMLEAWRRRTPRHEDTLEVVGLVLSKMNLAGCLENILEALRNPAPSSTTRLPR
Nature of the test: confocal immunofluorescence on L929 cells. As to the method:
The cells were fixed with 4% paraformaldehyde (PBS formulation) were for 10 minutes, blocked with phosphate buffer containing 0.5% BSA and 0.1% cold water fish gelatin for 15 minutes, and then incubated with rabbit anti-TNFR1 antibody (Abeam) for 1 hour. The cells were washed with PBS and then incubated with the relevant secondary antibody coupled to Alexa Fluor 488 or Alexa Fluor 568 (Invitrogen). Then the sample washed with PBS was mounted with Gelvatol/DABCO (Sigma-Aldrich). DNA was counterstained with DAPI (Sigma-Aldrich). All samples were analyzed by fluorescence microscopy at 60× using Nikon Eclipse 80i. Images were taken with NIS-Elements AR3.0 software using Hamamatsu camera.

B1: monoclonal antibody 244-12 (antibody, mouse IgG2b, kappa, V domains shown)
VH: QIQLVQSGPELKKPGETVKISCKASGYTFTNYGMNWVKQAPGKGLKWMGWINTYTGEPTYADDFKGRFAFSLETSANTAYLQINNLRNEGMATYFCARHYRYAWFPYWGQGTLVTVSA
VL: DIQMTQSPASLSASVGETVTITCRASGNIHIYLAWYQQKQGKSPQLLVYNAKTLADGVPSRFSGSGSGTQYSLKINSLQPEDFGSYYCQHFWSIPWTFGGGTKLEIKR
notes: It was detected with an anti-mouse IgG secondary antibody
In the case of B1, the binding result was “no binding (tested: 2 µg/ml)”.
